In patent US8809529B2, “Imidazo[1,2-α]pyrazine derivatives” (Promega Corporation, priority 2010, dated 2014):
Numbering of substitutions follows the chain as printed. Names may count otherwise.

B1: L27V: 9B8 opt+K33N variant with L27V, T39T, K43R, Y68D (protein)
chain: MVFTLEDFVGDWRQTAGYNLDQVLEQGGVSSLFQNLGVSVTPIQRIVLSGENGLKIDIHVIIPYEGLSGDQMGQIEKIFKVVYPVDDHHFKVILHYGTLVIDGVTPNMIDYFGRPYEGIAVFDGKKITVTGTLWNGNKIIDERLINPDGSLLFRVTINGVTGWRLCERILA
B2: 9B8 opt: codon optimized version of the 9B8 variant (protein)
chain: B1 chain with V29L, N35K, R45K, D70Y

What was measured:
[1] = Km of L27V reversion variants for native coelenterazine; assay type: biochemical
Procedure: (§1) Relative activities <1 indicate the reversion is detrimental compared to the residue at that site in the L27V variant. Relative activities >1 indicate the reversion is favorable for activity compared to the residue at that site in the L27V variant. Some additional data on these mutants indicated the following: 166K, 54F, 54A and L27V were tested for thermal stability. The T1/2 60° C. for 166K, 54F, and 54A were 87, 74, and 33%, respectively, indicating these substitutions cause a reduction in thermal stability. […] This indicates higher substrate affinity for L27V, particularly for the position 54 substitutions.

[2] = Km of L27V reversion variants for PBI-3939; assay type: biochemical
Procedure: as §1

[3] = target: T1, caspase-3 (Homo sapiens, UniProt P42574); assay: Caspase-3 bioluminescent assay with L27V and PBI-3741; assay type: biochemical; settings: luminescence, 3 hrs at room temperature
T1 sequence (P42574 29-175 limits assumed): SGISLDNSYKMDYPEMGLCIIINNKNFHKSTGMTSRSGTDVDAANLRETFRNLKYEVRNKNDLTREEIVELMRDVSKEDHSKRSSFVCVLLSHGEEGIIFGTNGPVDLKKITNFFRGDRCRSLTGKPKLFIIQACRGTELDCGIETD
T1 sequence (P42574 176-277 limits assumed): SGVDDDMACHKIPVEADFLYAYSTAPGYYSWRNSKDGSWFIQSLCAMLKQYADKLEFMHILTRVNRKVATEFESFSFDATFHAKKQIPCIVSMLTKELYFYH
Procedure: (§2) 2. The L27V variant was used in a bioluminescent assay using a pro-coelenterazine substrate comprising the DEVD caspase-3 cleavage sequence “DEVD” disclosed as SEQ ID NO: 581). Purified caspase-3 enzyme (1 mg/mL) in 100 mM MES pH 6 (50 μL) was mixed with 227 nM L27V02 variant and 47 μM PBI-3741 (z-DEVD-coelenterazine-h (“DEVD” disclosed as SEQ ID NO: 581)) in assay buffer (50 μL). Reactions were incubated for 3 hrs at room temperature, and luminescence detected as previously described. The assay with the L27V variant was compared to a firefly luciferase version of the assay, CASPASE-GLO® 3/7-Assay system (Caspase-Glo; Promega Corp.).

[4] = tested on: caspase-3; assay: as above; assay type: biochemical; settings: luminescence, 3 hrs at room temperature
Procedure: as §2

[5] = Exposure of L27V to 3 M urea; assay type: physicochemical; settings: 30 min at 25° C.
Procedure: A 0.31 mg/mL stock of purified L27V variant was diluted 100,000-fold into buffer (PBS+1 mM DTT+0.005% IGEPAL) and incubated with 3 M urea for 30 min at 25° C. and then mixed 1:1 (50 μL+50 μL) with an assay reagent containing 100 μM PBI-3939 (previously described). The reactions were read on a TECAN® INFINITE® F500 luminometer as described previously (for 100 min; 1 min read intervals) (FIG. 89).

[6] = tested on: CRE; assay: CRE transcriptional reporter, bulk transfection, NIH3T3 cells; assay type: cell-based
Procedure: The transcriptional reporter containing […] and 9B8 opt-P was used in the bulk transfection of HeLa cells
HEK293, NIH3T3, or HeLa cells were plated to a single well of a 6-well tissue culture plate the day before transfection at a density of 4.5×10^5 cells/well in 3 mL complete medium (DMEM+10% FBS+1×NEAA+1× sodium pyruvate) for HEK293 cells, 3×10^5 cellsNvell in 3 mL complete medium (DMEM+10% fetal calf serum (FCS)+1×NEAA+1× sodium pyruvate) for NIH3T3 cells, or 9.9×10^5 cells/well in 3 mL complete medium (DMEM+10% FBS+1×NEAA) for HeLa cells. Cells were grown overnight at 37° C.
3,300 ng of reporter plasmid DNA in 155 4 OPTI-MEM® was mixed with 9.9 μL FUGENE® HD transfection reagent, vortexed briefly, and incubated at room temperature for 10 min. The CRE transcriptional reporters were used to transfect HEK293 and NIH3T3 cells. The HRE transcriptional reporters were used to transfect HeLa cells. The reporter mixture was added to cells and mixed by gentle rocking followed by incubation at 37° C. for 6 hrs (HEK293 and NIH3T3) or 3 hrs (HeLa). Cells were then trypsinized and resuspended in medium (DMEM+10% FBS+1×NEAA+1× sodium pyruvate for HEK293 cells, DMEM+10% FCS+1×NEAA+1× sodium pyruvate for NIH3T3 cells, or DMEM+10% FBS+1×NEAA for HeLa cells), followed by plating to the individual wells of a 96-well plate (20,000 cells/100 μL for HEK293, 10,000 cells/100 4 for NIH3T3, or […] for HeLa) and incubated at 37° C. overnight.
FSK (CRE stimulator) or 17-AAG (HRE stimulator; 17-Allylamino-demethoxy geldanamycin) in OPTI-MEM® was added to the cells (10 nM or 10 μM final concentration for FSK; 1 nM or 1 μM final concentration for 17-AAG) and incubated at 37° C. for 4 hrs (FSK) or 6 hrs (17-AAG). Plates were removed from the incubator and allowed to equilibrate to room temperature for 25 min. Cells were lysed with 100 μL lytic reagent as described above for the forward transfection. Luminescence was measured on a GLOMAX® Luminometer.

[7] = target: T1, caspase-3; assay: Caspase-3 bioluminescent assay with 9B8 opt and z-DEVD-coelenterazine-h; assay type: biochemical
Procedure: 1. […] Purified caspase-3 enzyme was mixed with an E. coli lysate sample expressing the variant 9B8 opt, which was prepared as described in Example 27, and diluted 10-fold in a buffer containing 100 mM MES pH 6.0, 1 mM CDTA, 150 mM KCl, 35 mM thiourea, 2 mM DTT, 0.25% TERGITOL® NP-9 (v/v), 0.025% MAZU® DF 204, with or without 23.5 μM z-DEVD-coelenterazine-h in 100 mM HEPES pH 7.5 (“DEVD” disclosed as SEQ ID NO: 581). The caspase-3 enzyme was incubated with the lysate sample for 3 hrs at room temperature, and luminescence detected on a Turner MODULUS™ luminometer at various time points. A sample containing only bacterial lysate and a sample containing only caspase-3 were used as controls. Three replicates were used.

Molecule | Km [1] [µM] | Km [2] [µM] | (+) caspase [3] | (−) caspase [4] | reduction of activity by 3M urea [5] | baseline ([6]; NIH3T3, 10 nM FSK, 4 h) | RLU (10 mM FSK) ([6]; NIH3T3, 4 h) | Response ([6]; NIH3T3, FSK) | + caspase (RLU) ([7]; 5 min, z-DEVD-coelenterazine-h) | no caspase (RLU) ([7]; 5 min, z-DEVD-coelenterazine-h) | + caspase (RLU) ([7]; 15.3 min) | no caspase (RLU) ([7]; 15.3 min) | + caspase (RLU) ([7]; 29.9 min) | no caspase (RLU) ([7]; 29.9 min) | + caspase (RLU) ([7]; 60.9 min) | no caspase (RLU) ([7]; 60.9 min) | + caspase (RLU) ([7]; 190.3 min) | no caspase (RLU) ([7]; 190.3 min)
B1 | 16 | 18 | 11,532 | 803 | approximately 50% | – | – | – | – | – | – | – | – | – | – | – | – | –
B2 | – | – | – | – | – | 9,187,000 | 23,600,000 RLU | 2.6 | 25,411 RLU | 26,023 RLU | 36,906 RLU | 7,707 RLU | 41,854 RLU | 4,013 RLU | 43,370 RLU | 2,305 RLU | 42,448 RLU | 1,155 RLU
